From publication PMC5089669, “Biocatalytic Properties and Structural Analysis of Eugenol Oxidase from Rhodococcus jostii RHA1: A Versatile Oxidative Biocatalyst” (Chembiochem, 2016)

Substrate: C=CCc1cc(OC)c(O)c(OC)c1
Assay: purified protein
Assay type: biochemical, Rhodococcus jostii
Conditions: Tris-HCl 50 mM, pH 7.5, 25 °C, O2 as co-substrate

B1: Eugenol oxidase (EUGO) (Rhodococcus jostii RHA1) (protein)
chain: MTRTLPPGVSDERFDAALQRFRDVVGDKWVLSTADELEAFRDPYPVGAAEANLPSAVVSPESTEQVQDIVRIANEYGIPLSPVSTGKNNGYGGAAPRLSGSVIVKTGERMNRILEVNEKYGYALLEPGVTYFDLYEYLQSHDSGLMLDCPDLGWGSVVGNTLDRGVGYTPYGDHFMWQTGLEVVLPQGEVMRTGMGALPGSDAWQLFPYGFGPFPDGMFTQSNLGIVTKMGIALMQRPPASQSFLITFDKEEDLEQIVDIMLPLRINMAPLQNVPVLRNIFMDAAAVSKRTEWFDGDGPMPAEAIERMKKDLDLGFWNFYGTLYGPPPLIEMYYGMIKEAFGKIPGARFFTHEERDDRGGHVLQDRHKINNGIPSLDELQLLDWVPNGGHIGFSPVSAPDGREAMKQFEMVRNRANEYNKDYAAQFIIGLREMHHVCLFIYDTAIPEAREEILQMTKVLVREAAEAGYGEYRTHNALMDDVMATFNWGDGALLKFHEKIKDALDPNGIIAPGKSGIWSQRFRGQNL
notes: homodimer
  Km: 0.8 µM
  kcat: 0.49 s⁻¹
